Laboratory results as given in CN111018973A.

Key:
cTnI质控品重组抗原 (human) [1] = biological target: cTnI质控品重组抗原 (human) (UniProt P19429); test: indirect ELISA, cTnI coated at 1 ug/ml, antibody 8 ng/ml, goat anti-mouse IgG-HRP
cTnI质控品重组抗原 (human) [2] = biological target: cTnI质控品重组抗原 (human) (UniProt P19429); test: indirect ELISA, cTnI coated at 1 ug/ml, antibody 40 ng/ml, goat anti-mouse IgG-HRP
cTnI质控品重组抗原 (human) [3] = biological target: cTnI质控品重组抗原 (human) (UniProt P19429); test: indirect ELISA, cTnI coated at 1 ug/ml, antibody 1.6 ng/ml, goat anti-mouse IgG-HRP
cTnI质控品重组抗原 (human) [4] = biological target: cTnI质控品重组抗原 (human) (UniProt P19429); test: indirect ELISA, cTnI coated at 1 ug/ml, antibody 200 ng/ml, goat anti-mouse IgG-HRP
cTnI质控品重组抗原 (human) [5] = biological target: cTnI质控品重组抗原 (human) (UniProt P19429); test: indirect ELISA, cTnI coated at 1 ug/ml, antibody 0.32 ng/ml, goat anti-mouse IgG-HRP
cTnI质控品重组抗原 (human) [6] = biological target: cTnI质控品重组抗原 (human) (UniProt P19429); test: indirect ELISA, cTnI coated at 1 ug/ml, antibody 1000 ng/ml, goat anti-mouse IgG-HRP
cTnI质控品重组抗原 (human) [7] = biological target: cTnI质控品重组抗原 (human) (UniProt P19429); test: indirect ELISA, cTnI coated at 1 ug/ml, antibody 0 ng/ml (blank, background), goat anti-mouse IgG-HRP

Sequence of UniProt P19429 (P19429 whole entry): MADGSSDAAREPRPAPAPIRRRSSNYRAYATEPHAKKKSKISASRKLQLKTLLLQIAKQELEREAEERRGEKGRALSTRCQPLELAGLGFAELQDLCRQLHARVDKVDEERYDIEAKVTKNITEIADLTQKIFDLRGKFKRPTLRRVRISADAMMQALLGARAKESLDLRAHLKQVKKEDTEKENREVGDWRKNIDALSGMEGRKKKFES

B1: Anti-cTnI 8B6 重组抗体 (WT) (antibody, V domains shown)
VH: EVQLQQSGAELVKPGASVKLSCTASGFNIRDYYMHWMKQRTEQGLDWIGRIDPEEGETKYPPEFQGKATITADTSSNTAYLQLSTLTSEDTAVYYCARYYTSYIPFVYWGQGTLVTASA
VL: DVVMTQTPLSLSVSLGDQASISCRSTQSLLYSQRHTFLHWYLQKPGQSPKLLIFKISNKFSGVPDRFSGSGSGTDFTLKISRVEAEDLGVYFCSNSTHLPYTFGSGTKLEIKR
Binder B1 has an OD值 (450 nm, 参考630 nm) (cTnI质控品重组抗原 (human) [1]) of 1.47 OD, an OD值 (450 nm, 参考630 nm) (cTnI质控品重组抗原 (human) [2]) of 1.85 OD and an OD值 (450 nm, 参考630 nm) (cTnI质控品重组抗原 (human) [3]) of 0.227 OD. The OD值 (450 nm, 参考630 nm) (cTnI质控品重组抗原 (human) [4]) was 1.91 OD, the OD值 (450 nm, 参考630 nm) (cTnI质控品重组抗原 (human) [5]) was 0.086 OD and the OD值 (450 nm, 参考630 nm) (cTnI质控品重组抗原 (human) [6]) was 2.03 OD. For the same binder, the OD值 (450 nm, 参考630 nm) (cTnI质控品重组抗原 (human) [7]) was 0.062 OD.
